Like-named read-outs stand apart in the source and are kept apart here.
B1: Recombinant VWF A2 domain fused to Fc (Fc fusion)
chain: PGLLGVSTLGPKRNSMVLDVAFVLEGSDKIGEADFNRSKEFMEEVIQRMDVGQDSIHVTVLQYSYMVTVEYPFSEAQSKGDILQRVREIRYQGGNRTNTGLALRYLSDHSFLVSQGDREQAPNLVYMVTGNPASDEIKRLPGDIQVVPIGVGPNANVQELERIGWPNAPILIQDFETLPREAPDLVLQRCCSG
B2: Recombinant human angiopoietin-2 (ligand, UniProt O15123 19-496, looked up)
chain: YNNFRKSMDSIGKKQYQVQHGSCSYTFLLPEMDNCRSSSSPYVSNAVQRDAPLEYDDSVQRLQVLENIMENNTQWLMKLENYIQDNMKKEMVEIQQNAVQNQTAVMIEIGTNLLNQTAEQTRKLTDVEAQVLNQTTRLELQLLEHSLSTNKLEKQILDQTSEINKLQDKNSFLEKKVLAMEDKHIIQLQSIKEEKDQLQVLVSKQNSIIEELEKKIVTATVNNSVLQKQQHDLMETVNNLLTMMSTSNSAKDPTVAKEEQISFRDCAEVFKSGHTTNGIYTLTFPNSTEEIKAYCDMEAGGGGWTIIQRREDGSVDFQRTWKEYKVGFGNPSGEYWLGNEFVSQLTNQQRYVLKIHLKDWEGNEAYSLYEHFYLSSEELNYRIHLKGLTGTAGKISSISQPGNDFSTKDGDNDKCICKCSQMLTGGWWFDACGPSNLNGMYYPQRQNTNKFNGIKWYYWKGSGYSLKATTMMIRPADF
B3: Recombinant VWF D4 domain fused to Fc (Fc fusion)
chain: PCVCTGSSTRHIVTFDGQNFKLTGSCSYVLFQNKEQDLEVILHNGACSPGARQGCMKSIEVKHSALSVELHSDMEVTVNGRLVSVPYVGGNMEVNVYGAIMHEVRFNHLGHIFTFTPQNNEFQLQLSPKTFASKTYGLCGICDENGANDFMLRDGTVTTDWKTLVQEWTVQRPGQTCQPILEEQCLVPDSSHCQVLLLPLFAECHKVLAPATFYAICQQDSCHQEQVCEVIASYAHLCRTNGVCVDWRTPDFCAMSCPPSLVYNHCEHGCPRHCDGNVSSCGDHPSEGCFCPPDKVMLEGSCVPEEACTQCIGEDGVQHQFLEAWVPDHQPCQICTCLSGRKVNCTTQPCPT
B4: Tie-2/Fc (Fc fusion, human, UniProt Q02763 23-748, looked up)
chain: AMDLILINSLPLVSDAETSLTCIASGWRPHEPITIGRDFEALMNQHQDPLEVTQDVTREWAKKVVWKREKASKINGAYFCEGRVRGEAIRIRTMKMRQQASFLPATLTMTVDKGDNVNISFKKVLIKEEDAVIYKNGSFIHSVPRHEVPDILEVHLPHAQPQDAGVYSARYIGGNLFTSAFTRLIVRRCEAQKWGPECNHLCTACMNNGVCHEDTGECICPPGFMGRTCEKACELHTFGRTCKERCSGQEGCKSYVFCLPDPYGCSCATGWKGLQCNEACHPGFYGPDCKLRCSCNNGEMCDRFQGCLCSPGWQGLQCEREGIQRMTPKIVDLPDHIEVNSGKFNPICKASGWPLPTNEEMTLVKPDGTVLHPKDFNHTDHFSVAIFTIHRILPPDSGVWVCSVNTVAGMVEKPFNISVKVLPKPLNAPNVIDTGHNFAVINISSEPYFGDGPIKSKKLLYKPVNHYEAWQHIQVTNEIVTLNYLEPRTEYELCVQLVRRGEGGEGHPGPVRRFTTASIGLPPPRGLNLLPKSQTTLNLTWQPIFPSSEDDFYVEVERRSVQKSDQQNIKVPGNLTSVLLNNLHPREQYVVRARVNTKAQGEWSEDLTAWTLSDILPPQPENIKISNITHSSAVISWTILDGYSISSITIRYKVQGKNEDQHVDVKIKNATITQYQLKGLEPETAYQVDIFAENNIGSSNPAFSHELVTLPESQAPADLGGGKMLL
B5: Recombinant human angiopoietin-1 (ligand, UniProt Q15389 16-498, looked up)
chain: HIGCSNQRRSPENSGRRYNRIQHGQCAYTFILPEHDGNCRESTTDQYNTNALQRDAPHVEPDFSSQKLQHLEHVMENYTQWLQKLENYIVENMKSEMAQIQQNAVQNHTATMLEIGTSLLSQTAEQTRKLTDVETQVLNQTSRLEIQLLENSLSTYKLEKQLLQQTNEILKIHEKNSLLEHKILEMEGKHKEELDTLKEEKENLQGLVTRQTYIIQELEKQLNRATTNNSVLQKQQLELMDTVHNLVNLCTKEGVLLKGGKREEEKPFRDCADVYQAGFNKSGIYTIYINNMPEPKKVFCNMDVNGGGWTVIQHREDGSLDFQRGWKEYKMGFGNPSGEYWLGNEFIFAITSQRQYMLRIELMDWEGNRAYSQYDRFHIGNEKQNYRLYLKGHTGTAGKQSSLILHGADFSTKDADNDNCMCKCALMLTGGWWFDACGPSNLNGMFYTAGQNHGKLNGIKWHYFKGPSYSLRSTTMMIRPLDF

Legend:
Test in all cases: ELISA
[1] = target: Recombinant VWF fragment D’-D3-HPC4
[2] = target: Recombinant human angiopoietin-2 (human) (UniProt O15123)
[3] = target: B2
Tie-2/Fc = target: B4
[4] = target: von Willebrand factor (plasma-derived) (human (endogenous in plasma), UniProt P04275 764-2813)
[5] = target: B2; remark: listed apart in the source
[6] = target: B5

A maximal percent inhibition of binding to Ang-2 [1] of 77% was found for “Recombinant FVIII (from UniProt P00451 20-2351) (natural protein)” in this work.

An EC50 [2] of 159 nM was found for “Recombinant VWF fragment D’-D3-HPC4 (domain or fragment)” in this work.

An EC50 [3] of 36.7 ± 9.7 nM was found for B1 in this work.

With B2 the binding result (Tie-2/Fc) was “binds” and the EC50 [4] was 5.3 ± 1 nM.

An EC50 [3] of 18 ± 6 nM was found for B3 in this work.

An EC50 [5] of 0.2 ± 0.1 nM and an EC50 [6] of 0.2 ± 0.1 nM were found for B4 in this work.

B5: binds (Tie-2/Fc).

Reference: paper PMC10579536 (Research and Practice in Thrombosis and Haemostasis, 2023)
